Laboratory results reported in IntAct's records for PubMed 19696444.

B1: Anosmin-1 (Homo sapiens), P23352 (parent)
chain: MVPGVPGAVLTLCLWLAASSGCLAAGPGAAAARRLDESLSAGSVQRARCASRCLSLQITRISAFFQHFQNNGSLVWCQNHKQCSKCLEPCKESGDLRKHQCQSFCEPLFPKKSYECLTSCEFLKYILLVKQGDCPAPEKASGFAAACVESCEVDNECSGVKKCCSNGCGHTCQVPKTLYKGVPLKPRKELRFTELQSGQLEVKWSSKFNISIEPVIYVVQRRWNYGIHPSEDDATHWQTVAQTTDERVQLTDIRPSRWYQFRVAAVNVHGTRGFTAPSKHFRSSKDPSAPPAPANLRLANSTVNSDGSVTVTIVWDLPEEPDIPVHHYKVFWSWMVSSKSLVPTKKKRRKTTDGFQNSVILEKLQPDCDYVVELQAITYWGQTRLKSAKVSLHFTSTHATNNKEQLVKTRKGGIQTQLPFQRRRPTRPLEVGAPFYQDGQLQVKVYWKKTEDPTVNRYHVRWFPEACAHNRTTGSEASSGMTHENYIILQDLSFSCKYKVTVQPIRPKSHSKAEAVFFTTPPCSALKGKSHKPVGCLGEAGHVLSKVLAKPENLSASFIVQDVNITGHFSWKMAKANLYQPMTGFQVTWAEVTTESRQNSLPNSIISQSQILPSDHYVLTVPNLRPSTLYRLEVQVLTPGGEGPATIKTFRTPELPPSSAHRSHLKHRHPHHYKPSPERY

Variants of: B1
Settings: with fgfr1_human FGFR1, P11362
Chain of fgfr1_human FGFR1, P11362 (P11362 whole entry, looked up): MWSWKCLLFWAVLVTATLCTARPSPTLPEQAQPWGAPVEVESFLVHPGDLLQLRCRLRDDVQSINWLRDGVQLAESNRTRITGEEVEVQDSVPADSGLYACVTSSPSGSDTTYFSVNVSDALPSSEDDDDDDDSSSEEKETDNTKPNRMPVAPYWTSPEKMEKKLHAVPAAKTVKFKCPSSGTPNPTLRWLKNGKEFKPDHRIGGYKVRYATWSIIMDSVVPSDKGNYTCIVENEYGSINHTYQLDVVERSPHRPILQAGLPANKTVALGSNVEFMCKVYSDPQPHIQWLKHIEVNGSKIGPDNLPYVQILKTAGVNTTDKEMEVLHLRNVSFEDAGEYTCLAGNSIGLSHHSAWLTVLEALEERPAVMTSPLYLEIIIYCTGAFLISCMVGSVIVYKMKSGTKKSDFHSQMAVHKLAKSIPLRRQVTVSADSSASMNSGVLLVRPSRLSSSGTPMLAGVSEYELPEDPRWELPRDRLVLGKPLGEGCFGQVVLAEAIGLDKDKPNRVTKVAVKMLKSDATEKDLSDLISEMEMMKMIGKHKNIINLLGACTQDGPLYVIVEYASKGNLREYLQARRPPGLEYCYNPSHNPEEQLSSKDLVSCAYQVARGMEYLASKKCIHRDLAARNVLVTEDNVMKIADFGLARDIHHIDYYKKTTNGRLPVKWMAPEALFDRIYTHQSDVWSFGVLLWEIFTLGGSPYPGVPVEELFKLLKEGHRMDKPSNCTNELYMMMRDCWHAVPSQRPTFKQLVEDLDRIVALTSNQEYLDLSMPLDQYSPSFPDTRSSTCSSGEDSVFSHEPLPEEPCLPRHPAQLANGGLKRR

| effect of a mutation on the interaction | Variant |
| --- | --- |
| disrupting interaction | N267K |
